In paper PMC7083938:
Values joined by “and” are separate entries in the source; they are usually repeats but may differ in a detail not shown here. Identical values can stand only once. Like-named read-outs stand apart in the source and are kept apart here. Each block holds one substance with its values, some of them ahead of it.

Key:
[1] = biological target: NELL2, full length (Supplementary Fig. 9c; species not stated) (not stated (human or mouse cDNA cloned)) (UniProt Q99435); assay: non-reducing SDS-PAGE; NELL2 and NELL2ΔCC on non-reducing (-DTT) and reducing (+DTT) SDS-PAGE; size from ladder standards
[2] = biological target: full-ectodomain Robo surface (SPR with full-length NELL2 as analyte); assay: SPR; mRobo3 ECD (167 RU) and mRobo1^Robo3-FN1 ECD (177 RU) biotinylated with NHS-Biotin and captured on a Biacore Series S SA chip; full-length mNELL2 as analyte; 1:1 Langmuir isotherm with a linear nonspecific-binding term; regeneration with 10 mM EDTA
[3] = biological target: mNELL2 (full length) (mouse); assay: SEC-MALS; Superose 6 Increase 10/300 in HBS (10 mM HEPES pH 7.2, 150 mM NaCl), Wyatt HELEOS II
[4] = biological target: mRobo1 ectodomain (mouse) (UniProt O89026); assay: SPR; mRobo1 ectodomain on a CM5 chip by random amine coupling (~1,200 RU); mNELL2 as analyte; 25 °C, 10 mM HEPES pH 7.2, 150 mM NaCl, 0.05% Tween-20, 0.1% BSA; KD from equilibrium responses assuming 50 to 100% active surface
[5] = biological target: mRobo1 ectodomain (mouse) (UniProt O89026); assay: as above; remark: listed apart in the source
[6] = biological target: mRobo1Robo3-FN1 ECD chimera (mouse) (UniProt O89026); assay: SPR; mRobo3 ECD (167 RU) or mRobo1Robo3-FN1 ECD (177 RU), NHS-biotin, on a Biacore Series S SA chip; mNELL2 full length or mNELL2 EGF1-6 as analyte; regeneration with 10 mM EDTA; equilibrium, 1:1 model with a linear non-specific binding term
[7] = biological target: mRobo3 ectodomain (mouse); assay: as above
mRobo3 FN1-3 (mouse) = assay: SPR; biotinylated mRobo3 FN1-3 on a Biacore SA chip; mNELL2 EGF1-6 WT and mutants as analytes over the same channel; 20 s 10 mM EDTA pH 8, 150 mM NaCl between runs; 25 °C, 10 mM HEPES pH 7.2, 150 mM NaCl, 0.05% Tween-20, 0.1% BSA; equilibrium, 1:1 Langmuir
mRobo1 FN1-3 (mouse) = mRobo1 FN1-3 (mouse) (UniProt O89026); assay: SPR; mRobo1 FN1-3 (NHS-biotin on the N-terminal amine, 315 RU) on a Biacore SA chip; mNELL2 EGF1-6 as analyte; 25 °C, 10 mM HEPES pH 7.2, 150 mM NaCl, 0.05% Tween-20, 0.1% BSA; 1:1 Langmuir
[8] = biological target: mNELL2 (full length) (mouse); assay: SEC; mNELL2 with excess mRobo3 FN1 on Superose 6 10/300; complex fractions quantified by fluorescent anti-His western blot against 1:1 standards
mNELL2ΔCC (mouse) [9] = assay: SPR; mNELL2 or mNELL2ΔCC (100 RU each, NHS-biotin) on a Biacore Series S SA chip; mRobo3 ECD or mRobo3 FN1 as analyte; regeneration with 10 mM EDTA; equilibrium analysis
[10] = biological target: mNELL2 (full length) (mouse); assay: as above
mNELL2ΔCC (mouse) [11] = assay: as above; remark: listed apart in the source
[12] = biological target: biotinylated mouse Robo3 FN1–3 (Avi-tagged) (mouse) (UniProt Q9Z2I4); assay: SPR; biotinylated mRobo3 FN1–3 captured on an SA chip (Biacore); mNELL2 EGF1–6 WT and mutants as analyte; 25 °C, 10 mM HEPES pH 7.2, 150 mM NaCl, 0.05% Tween-20, 0.1% BSA; 1:1 Langmuir isotherm
Sequence of biotinylated mouse Robo3 FN1–3 (Avi-tagged) (mouse) (Q9Z2I4 558-869): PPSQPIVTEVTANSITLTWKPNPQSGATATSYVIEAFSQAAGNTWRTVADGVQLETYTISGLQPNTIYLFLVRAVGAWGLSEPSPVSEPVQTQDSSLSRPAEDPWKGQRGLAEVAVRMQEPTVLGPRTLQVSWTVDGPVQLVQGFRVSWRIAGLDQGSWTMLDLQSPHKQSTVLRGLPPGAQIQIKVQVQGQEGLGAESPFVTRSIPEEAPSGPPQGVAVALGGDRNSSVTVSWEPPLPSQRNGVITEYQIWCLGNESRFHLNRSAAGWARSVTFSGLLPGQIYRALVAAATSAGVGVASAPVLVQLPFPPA

Sequence of mRobo1 ectodomain (mouse) (O89026 30-840): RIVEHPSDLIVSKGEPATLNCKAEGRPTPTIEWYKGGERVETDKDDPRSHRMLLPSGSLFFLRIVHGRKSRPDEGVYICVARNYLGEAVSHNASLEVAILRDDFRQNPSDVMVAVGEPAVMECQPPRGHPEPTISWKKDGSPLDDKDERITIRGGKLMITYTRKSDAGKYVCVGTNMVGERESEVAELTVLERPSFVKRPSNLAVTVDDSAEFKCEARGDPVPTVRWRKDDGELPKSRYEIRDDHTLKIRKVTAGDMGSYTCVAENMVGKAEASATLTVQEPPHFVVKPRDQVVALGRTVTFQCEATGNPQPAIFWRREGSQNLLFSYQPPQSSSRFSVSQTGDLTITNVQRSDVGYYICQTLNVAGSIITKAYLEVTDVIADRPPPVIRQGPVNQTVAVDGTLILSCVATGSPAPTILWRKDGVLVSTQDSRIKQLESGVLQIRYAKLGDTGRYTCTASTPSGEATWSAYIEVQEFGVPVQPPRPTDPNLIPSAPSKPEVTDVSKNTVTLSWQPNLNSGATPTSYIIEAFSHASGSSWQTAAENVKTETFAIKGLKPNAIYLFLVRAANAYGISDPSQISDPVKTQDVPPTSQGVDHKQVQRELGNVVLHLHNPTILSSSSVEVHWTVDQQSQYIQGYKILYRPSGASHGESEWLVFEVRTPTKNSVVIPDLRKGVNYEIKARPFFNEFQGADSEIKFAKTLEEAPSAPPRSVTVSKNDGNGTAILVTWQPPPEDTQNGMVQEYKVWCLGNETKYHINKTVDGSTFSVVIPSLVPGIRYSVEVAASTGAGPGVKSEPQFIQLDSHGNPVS
Sequence of full-length mouse NELL2 (Q61220 25-819): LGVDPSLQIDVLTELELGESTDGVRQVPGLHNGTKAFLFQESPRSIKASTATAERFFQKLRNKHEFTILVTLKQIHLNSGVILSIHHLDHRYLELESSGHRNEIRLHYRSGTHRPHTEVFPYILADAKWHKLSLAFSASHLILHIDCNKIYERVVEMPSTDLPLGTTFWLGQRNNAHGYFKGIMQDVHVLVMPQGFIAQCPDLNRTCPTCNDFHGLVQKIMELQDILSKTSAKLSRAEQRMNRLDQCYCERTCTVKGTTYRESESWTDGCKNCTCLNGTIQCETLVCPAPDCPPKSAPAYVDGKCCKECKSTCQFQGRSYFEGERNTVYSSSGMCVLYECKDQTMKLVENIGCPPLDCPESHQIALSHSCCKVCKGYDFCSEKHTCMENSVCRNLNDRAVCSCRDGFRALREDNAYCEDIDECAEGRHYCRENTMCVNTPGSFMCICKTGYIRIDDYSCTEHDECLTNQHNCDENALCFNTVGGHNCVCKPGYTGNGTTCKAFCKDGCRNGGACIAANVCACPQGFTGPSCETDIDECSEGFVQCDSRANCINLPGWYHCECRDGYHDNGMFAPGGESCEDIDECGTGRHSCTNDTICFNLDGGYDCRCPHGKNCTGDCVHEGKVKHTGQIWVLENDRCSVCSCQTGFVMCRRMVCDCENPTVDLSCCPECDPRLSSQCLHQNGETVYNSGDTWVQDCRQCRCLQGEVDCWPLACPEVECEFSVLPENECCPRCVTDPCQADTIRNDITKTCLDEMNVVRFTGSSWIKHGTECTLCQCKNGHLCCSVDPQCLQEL
Sequence of mRobo1 FN1-3 (mouse) (O89026 519-840): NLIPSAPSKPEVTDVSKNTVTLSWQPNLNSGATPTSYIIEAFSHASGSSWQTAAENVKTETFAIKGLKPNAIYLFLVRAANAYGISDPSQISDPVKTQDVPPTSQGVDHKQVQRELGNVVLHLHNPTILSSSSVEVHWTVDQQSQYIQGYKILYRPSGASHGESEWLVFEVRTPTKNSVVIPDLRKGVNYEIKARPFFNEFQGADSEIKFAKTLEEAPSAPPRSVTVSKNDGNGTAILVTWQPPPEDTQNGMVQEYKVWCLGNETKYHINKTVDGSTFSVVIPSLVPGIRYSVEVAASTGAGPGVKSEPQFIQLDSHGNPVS

- stoichiometry N [1]: 3
Substance: NELL2, full length (Supplementary Fig. 9c; species not stated) (from UniProt Q99435 22-816) (ligand)

- Kd [2]: 500 to 1000 nM
Substance: full-length mouse NELL2 (from UniProt Q61220 25-819) (ligand)

- stoichiometry N [3]: 3
- Kd [4]: > 100000 nM
- Kd [5]: 350000 nM
- Kd [6]: 470 nM
- Kd [7]: 940 nM
Substance: mNELL2 (full length) (ligand)

- Kd (mRobo3 FN1-3 (mouse)): 87000 nM
Substance: mNELL2 EGF1-6 R448A/Y450A (domain or fragment)

- Kd (mRobo3 FN1-3 (mouse)): 1700 nM
Substance: mNELL2 EGF1-6 R452A (domain or fragment)

- Kd (mRobo3 FN1-3 (mouse)): 1700 nM
Substance: mNELL2 EGF1-6 V509A (domain or fragment)

- Kd (mRobo1 FN1-3 (mouse)): 13800 nM
- Kd [6]: 1700 nM
- Kd [7]: 1700 nM
- Kd (mRobo3 FN1-3 (mouse)): 710 nM
Substance: mNELL2 EGF1-6 WT (domain or fragment)

- stoichiometry N (mNELL2:mRobo3 FN1 (molar ratio)) [8]: 1.16
- Kd (mNELL2ΔCC (mouse) [9]): 710 nM and 890 nM
- Kd [10]: 510 nM
- Kd (mNELL2ΔCC (mouse) [11]): 720 nM
Substance: mRobo3 FN1 (domain or fragment)

- Kd [10]: 890 nM
- Kd (mNELL2ΔCC (mouse) [11]): 1800 nM
Substance: mRobo3 ectodomain (domain or fragment)

- Kd [12]: > 100000 nM
- fold reduction of affinity against wild-type mNELL2 [12]: 500 fold
Substance: mouse NELL2 EGF1–6 L498A/F500A (domain or fragment)

- fold reduction of affinity against wild-type mNELL2 [12]: 120 fold
Substance: mouse NELL2 EGF1–6 R448A/Y450A (domain or fragment)

- Kd [12]: 1700 nM
- fold reduction of affinity against wild-type mNELL2 [12]: 2.4 fold
Substance: mouse NELL2 EGF1–6 R452A (domain or fragment)

- Kd [12]: 1700 nM
- fold reduction of affinity against wild-type mNELL2 [12]: 2.4 fold
Substance: mouse NELL2 EGF1–6 V509A (domain or fragment)
